Measurements taken from patent US8440190.

Each substance was assayed against immobilized CD52 (human) (UniProt P31358) (assay: Fab fragments assayed for binding to immobilized CD52).

fold reduction of binding against the humanized Campath-1 Fab [fold]	Substance
3	humanized Campath-1 Fab with (VH) CDR1 replaced by that of NEW
3	humanized Campath-1 Fab with (VL) CDR3 replaced by that of REI
8	humanized Campath-1 Fab with (VH) CDR3 replaced by that of NEW
